# Assay results: US8460669B2, “Compositions and methods for identifying response targets and treating flavivirus infection responses” (Academia Sinica, priority 2005, dated 2013)
# T1: DVLR1/CLEC5A (Homo sapiens, UniProt Q9NY25)
# T1 construct: endogenous in cells; host or cells: human CD14+ PBMC-derived macrophages (M-CSF, 6 days)
# T1 sequence (Q9NY25 1-188): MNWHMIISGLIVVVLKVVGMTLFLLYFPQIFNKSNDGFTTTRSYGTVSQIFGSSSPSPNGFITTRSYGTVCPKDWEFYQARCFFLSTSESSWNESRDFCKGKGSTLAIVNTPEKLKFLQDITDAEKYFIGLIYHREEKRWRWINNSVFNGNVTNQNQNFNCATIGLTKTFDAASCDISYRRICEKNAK
# Target: T1, DVLR1/CLEC5A
# Test: DV-induced TNF-α secretion from human macrophages with anti-DVLR1/CLEC5A mAbs
# Format: cell-based
# Conditions: for TNF-α release from macrophages after infection with DEN1, DEN2, DEN3 and DEN4: dose-dependent manner, ELISA of culture supernatants
# From the text: Monoclonal antibodies against DVLR1/CLEC5A were generated using standard techniques. Briefly, mice were immunized with DVLR-1.Fc fusion protein, and hybridomas were formed by fusing spienocytes from the mice with P3/NSI/1-Ag4-1 [NS-1] myeloma cells (ATCC TIB-18). Among the mAbs generated, clone 9B12, the subclones of 3E12 (clones 3E12A2, 3E12C1, 3E12G9), and clone 8H8F5 suppressed TNF-α release from macrophages after infection with DEN1 (strain 766733A), DEN2 (strain PL046), DEN3 (strain H-87), and DEN4 (strain 866146A) in a dose-dependent manner. […] In accordance with standard nomenclature, each antibody is referred to via the clone number of the hybridoma that secretes it.
# According to embodiments illustrated in FIG. 19, DVLR1/CLEC5A is critical for DV-mediated TNF-α, but not IFN-α, secretion. More specifically, FIG. 19a illustrates the dose-dependency of DV and UV-DV induced TNF-α secretion by macrophages measured by ELISA at 6 h and 12 h p.i. FIG. 19b illustrates the kinetics of TNF-α expression after DV infection (m.o.i.=5). FIG. 19c illustrates the effects of DVLR1/CLEC5A and DC-SIGN shRNAs on the secretion of TNF-α, IL-6, MIP1-α, IL-8, IP-10, and IFN-α from DV-infected macrophages (m.o.i.=5). In FIG. 19d, knockdown experiments with receptor specific shRNAs illustrating that DV-induced IFN-α secretion is via the TLR7-MyD88 pathway and TNF-α secretion is via DVLR1/CLEC5A-TLR7-MyD88 pathway. FIG. 19e illustrates antagonistic anti-DVLR1/CLEC5A mAbs inhibiting TNF-α secretion in response to DV serotypes 1-4 is inhibited (see Table 3).
# M.R. mAb (anti-mannose receptor mAb; mIgG1) and murine IgM (mIgM) were used as negative controls. In both FIG. 19d and FIG. 19e, macrophages were infected with DV (m.o.i.=5) and harvested at 36 h p.i. for cytokine assays. Data are expressed as mean±s.d. of three independent experiments (using material from at least three different donors). Two-tailed, Student's t-tests were performed. “ND” represents not detected.
# [1] = antibody 10 μg/sample, p vs isotype control, m.o.i.=5, 36 h p.i.
Molecule,Antagonistic DV2 (suppression of DV-induced TNF-α secretion) [1],Antagonistic DV3 (suppression of DV-induced TNF-α secretion) [1],"TNF-α release from macrophages after infection with DEN1, DEN2, DEN3 and DEN4",Antagonistic DV1 (suppression of DV-induced TNF-α secretion) [1],Antagonistic DV4 (suppression of DV-induced TNF-α secretion) [1]
"3E12G9: anti-human DVLR1/CLEC5A monoclonal antibody, subclone of 3E12; VH SEQ ID NO: 62, VL SEQ ID NO: 63 (antibody, V domains shown) VH: QVQLEQSGPELVKPGASVKLSCKASGYTFTEYIIHWVKQRSGQGLEWIGWFYPGSGSIKYNEKFKDKATLTADKSSSTVYMELSGLTSEDSAVYFCARHDGYSYFDYWGQGTTLTV VL: QSPSSLAVSAGEKVTMSCKSSQSLLNSRTRKNYLAWYQQKPGQSPKLLIYWASTRESGVPDRFTGSGSGTDFTLTISSVQAEDLAVYYCKQSYNLYTFGGGTKLEIK",** (“**” - p < 0.01),** (“**” - p < 0.01),suppressed,–,–
"8H8F5: anti-human DVLR1/CLEC5A monoclonal antibody; VH SEQ ID NO: 64, VL SEQ ID NO: 65 (antibody, V domains shown) VH: ESGRGLVQPGGSRKLSCAASGFTFSTSGMHWVRQAPEKGLEWVAYISSGSTTIYHADTVKGRFTISRDNPKNTLFLQMTSLRSEDTAMYYCARSGQFGNYFDYWGQGTTLTVSS VL: MTQSPKFLLVSAGDRVTLTCKASQSVNNDVYWYQQEPGQSPKLLIYYASNRYTGVPDRFTGSGYGTDFTFTISTVQSEDLAVYFCQHDYSSPYTFGGGTKLEIKR",*** (“***” - p < 0.001),** (“**” - p < 0.01),suppressed,* (“*” - p < 0.05),* (“*” - p < 0.05)
